Laboratory results from IntAct's records for PubMed 19542283.

B1: Chemotaxis protein CheA (Escherichia coli (strain K12)), P07363-2 (parent)
chain: MQEQLDAYKQSQEPDAASFDYICQALRQLALEAKGETPSAVTRLSVVAKSEPQDEQSRSQSPRRIILSRLKAGEVDLLEEELGHLTTLTDVVKGADSLSAILPGDIAEDDITAVLCFVIEADQITFETVEVSPKISTPPVLKLAAEQAPTGRVEREKTTRSNESTSIRVAVEKVDQLINLVGELVITQSMLAQRSSELDPVNHGDLITSMGQLQRNARDLQESVMSIRMMPMEYVFSRYPRLVRDLAGKLGKQVELTLVGSSTELDKSLIERIIDPLTHLVRNSLDHGIELPEKRLAAGKNSVGNLILSAEHQGGNICIEVTDDGAGLNRERILAKAASQGLTVSENMSDDEVAMLIFAPGFSTAEQVTDVSGRGVGMDVVKRNIQKMGGHVEIQSKQGTGTTIRILLPLTLAILDGMSVRVADEVFILPLNAVMESLQPREADLHPLAGGERVLEVRGEYLPIVELWKVFNVAGAKTEATQGIVVILQSGGRRYALLVDQLIGQHQVVVKNLESNYRKVPGISAATILGDGSVALIVDVSALQAINREQRMANTAA
partner: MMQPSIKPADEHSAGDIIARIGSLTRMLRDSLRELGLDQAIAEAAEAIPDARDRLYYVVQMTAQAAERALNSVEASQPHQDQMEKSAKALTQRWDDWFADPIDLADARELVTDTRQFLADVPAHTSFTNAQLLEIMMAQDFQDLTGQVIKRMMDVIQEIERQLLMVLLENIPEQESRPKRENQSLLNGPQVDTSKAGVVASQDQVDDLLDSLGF

Variants of: B1
Settings: with chez_ecoli cheZ

| Variant | effect of a mutation on the interaction |
| --- | --- |
| Y21S | disrupting interaction strength |
| I22A | decreasing interaction strength |
| I22S | disrupting interaction strength |
| L26A | disrupting interaction strength |
| L26S | disrupting interaction strength |
